According to patent US6942963 (MIT, dated 2005):
Non-standard residues stand in square brackets, D forms with d.

Target: β-amyloid peptide βAP1-42
Test: cell-based or functional assay

β-amyloid peptide βAP1-42, sequence (peptide, as listed by the source): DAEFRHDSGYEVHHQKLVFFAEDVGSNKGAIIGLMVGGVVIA

decrease in aggregation rate of βAP1-42, light scattering at 500 nm, DP16 at 1:1 molar ratio: ~50%
Binder: H-[dT][dP][dI][dR][dT][dP][dA][dP][dA]-OH [decoy peptide DP16 (+NH3.T.P.I.R+.T.P.A.P.A.COO-)]
